Assay results: patent publication US20080219999A1

Target: Rhinovirus serotype HRV-39 (human rhinovirus 39)
Test: cell-based or functional assay

Substance | IC50, cytopathic effect (CPE) assay on HeLa S3 cells [µg/mL] | fold lower IC50 than soluble ICAM-1, CPE assay on HeLa S3 cells [fold]
IC1-5D/IgA (ICAM/IgA fusion, gift of Dr. Tim Springer; Martin, et al., 1993) (from UniProt P05362 28-480; P01876 103-353) (Fc fusion) | 0.12 | 11.3
soluble human ICAM-1 (from UniProt P05362 28-480) | 1.35 | –
